± gives the uncertainty stated by the source.
Tested on: HEK293T
Assay: plasma membrane surface immunostaining intensity (anti-HA, deep receptor scanning) (arbitrary fluorescence units); higher = higher plasma membrane expression

Question: For “MAVAPLRGALLLWQLLAAGGAALEIGRFDPERGRGAAPCQAVEIPMCRGIGYNLTRMPNLLGHTSQGEAAAELAEFAPLVQYGCHSHLRFFLCSLYAPMCTDQVSTPIPACRPMCEQARLRCAPIMEQFNFGWPDSLDCARLPTRNDPHALCMEAPENATAGPAEPHKGLGMLPVAPRPARPPGDLGPGAGGSGTCENPEKFQYVEKSRSCAPRCGPGVEVFWSRRDKDFALVWMAVWSALCFFSTAFTVLTFLLEPHRFQYPERPIIFLSMCYNVYSLAFLIRAVAGAQSVACDQEAGALYVIQEGLENTGCTLVFLLLYYFGMASSLWWVVLTLTWFLAAGKKWGHEAIEAHGSYFHMAAWGLPALKTIVILTLRKVAGDELTGLCYVASTDAAALTGFVLVPLSGYLVLGSSFLLTGFVALFHIRKIMKTGGTNTEKLEKLMVKIGVFSILYTVPATCVIVCYVYERLNMDFWRLRATEQPCAAAAGPGGRRDCSLPGGSVPTVAVFMLKIFMSLVVGITSGVWVWSSKTFQTWQSLCYRKIAAGRARAKACRAPGSYGRGTHCHYKAPTVVLHMTKTDPSLENPTHL [FZD9]”, which “plasma membrane surface immunostaining intensity” value (GPCR class: F) is on record?
Answer: 1560 ± 410

Question: How did the “plasma membrane surface immunostaining intensity” value (GPCR class: F) turn out when “MEMFTFLLTCIFLPLLRGHSLFTCEPITVPRCMKMAYNMTFFPNLMGHYDQSIAAVEMEHFLPLANLECSPNIETFLCKAFVPTCIEQIHVVPPCRKLCEKVYSDCKKLIDTFGIRWPEELECDRLQYCDETVPVTFDPHTEFLGPQKKTEQVQRDIGFWCPRHLKTSGGQGYKFLGIDQCAPPCPNMYFKSDELEFAKSFIGTVSIFCLCATLFTFLTFLIDVRRFRYPERPIIYYSVCYSIVSLMYFIGFLLGDSTACNKADEKLELGDTVVLGSQNKACTVLFMLLYFFTMAGTVWWVILTITWFLAAGRKWSCEAIEQKAVWFHAVAWGTPGFLTVMLLAMNKVEGDNISGVCFVGLYDLDASRYFVLLPLCLCVFVGLSLLLAGIISLNHVRQVIQHDGRNQEKLKKFMIRIGVFSGLYLVPLVTLLGCYVYEQVNRITWEITWVSDHCRQYHIPCPYQAKAKARPELALFMIKYLMTLIVGISAVFWVGSKKTCTEWAGFFKRNRKRDPISESRRVLQESCEFFLKHNSKVKHKKKHYKPSSHKLKVISKSMGTSTGATANHGTSAVAITSHDYLGQETLTEIQTSPETSMREVKADGASTPRLREQDCGEPASPAASISRLSGEQVDGKGQAGSVSESARSEGRISPKSDITDTGLAQSNNLQVPSSSEPSSLKGSTSLLVHPVSGVRKEQGGGCHSDT [FZD6]” was run?
Answer: 329 ± 75

Question: For “MTEFHLQSQMPSIRLIFRRLSLGRIKPSQSPRCSTSFMVVPSFSIAEHWRRMKGANLSQGMEFELLGLTTDPQLQRLLFVVFLGMYTATLLGNLVMFLLIHVSATLHTPMYSLLKSLSFLDFCYSSTVVPQTLVNFLAKRKVISYFGCMTQMFFYAGFATSECYLIAAMAYDRYAAICNPLLYSTIMSPEVCASLIVGSYSAGFLNSLIHTGCIFSLKFCGAHVVTHFFCDGPPILSLSCVDTSLCEILLFIFAGFNLLSCTLTILISYFLILNTILKMSSAQGRFKAFSTCASHLTAICLFFGTTLFMYLRPRSSYSLTQDRTVAVIYTVVIPVLNPLMYSLRNKDVKKALIKVWGRKTME [OR5AU1]”, which “plasma membrane surface immunostaining intensity” value (GPCR class: A (Olfactory)) is on record?
Answer: 419 ± 110

Question: For “MGGRVFLVFLAFCVWLTLPGAETQDSRGCARWCPQDSSCVNATACRCNPGFSSFSEIITTPMETCDDINECATLSKVSCGKFSDCWNTEGSYDCVCSPGYEPVSGAKTFKNESENTCQDVDECQQNPRLCKSYGTCVNTLGSYTCQCLPGFKLKPEDPKLCTDVNECTSGQNPCHSSTHCLNNVGSYQCRCRPGWQPIPGSPNGPNNTVCEDVDECSSGQHQCDSSTVCFNTVGSYSCRCRPGWKPRHGIPNNQKDTVCEDMTFSTWTPPPGVHSQTLSRFFDKVQDLGRDYKPGLANNTIQSILQALDELLEAPGDLETLPRLQQHCVASHLLDGLEDVLRGLSKNLSNGLLNFSYPAGTELSLEVQKQVDRSVTLRQNQAVMQLDWNQAQKSGDPGPSVVGLVSIPGMGKLLAEAPLVLEPEKQMLLHETHQGLLQDGSPILLSDVISAFLSNNDTQNLSSPVTFTFSHRSVIPRQKVLCVFWEHGQNGCGHWATTGCSTIGTRDTSTICRCTHLSSFAVLMAHYDVQEEDPVLTVITYMGLSVSLLCLLLAALTFLLCKAIQNTSTSLHLQLSLCLFLAHLLFLVAIDQTGHKVLCSIIAGTLHYLYLATLTWMLLEALYLFLTARNLTVVNYSSINRFMKKLMFPVGYGVPAVTVAISAASRPHLYGTPSRCWLQPEKGFIWGFLGPVCAIFSVNLVLFLVTLWILKNRLSSLNSEVSTLRNTRMLAFKATAQLFILGCTWCLGILQVGPAARVMAYLFTIINSLQGVFIFLVYCLLSQQVREQYGKWSKGIRKLKTESEMHTLSSSAKADTSKPSTVN [ADGRE2]”, which “plasma membrane surface immunostaining intensity” value (GPCR class: B) is on record?
Answer: 6310 ± 78

Question: With “MSSNSSLLVAVQLCYANVNGSCVKIPFSPGSRVILYIVFGFGAVLAVFGNLLVMISILHFKQLHSPTNFLVASLACADFLVGVTVMPFSMVRTVESCWYFGRSFCTFHTCCDVAFCYSSLFHLCFISIDRYIAVTDPLVYPTKFTVSVSGICISVSWILPLMYSGAVFYTGVYDDGLEELSDALNCIGGCQTVVNQNWVLTDFLSFFIPTFIMIILYGNIFLVARRQAKKIENTGSKTESSSESYKARVARRERKAAKTLGVTVVAFMISWLPYSIDSLIDAFMGFITPACIYEICCWCAYYNSAMNPLIYALFYPWFRKAIKVIVTGQVLKNSSATMNLFSEHI [TAAR6]” as the sequence, how does the “plasma membrane surface immunostaining intensity” value (GPCR class: A) read?
Answer: 175 ± 65

Question: For “MQPYTKNWTQVTEFVMMGFAGIHEAHLLFFILFLTMYLFTLVENLAIILVVGLDHRLRRPMYFFLTHLSCLEIWYTSVTVPKMLAGFIGVDGGKNISYADCLSQLFIFTFLGATECFLLAAMAYDRYVAICMPLHYGAFVSWGTCIRLAAACWLVGFLTPILPIYLLSQLTFYGPNVIDHFSCDASPLLALSCSDVTWKETVDFLVSLAVLLASSMVIAVSYGNIVWTLLHIRSAAERWKAFSTCAAHLTVVSLFYGTLFFMYVQTKVTSSINFNKVVSVFYSVVTPMLNPLIYSLRNKEVKGALGRVFSLNFWKGQ [OR6Q1]”, which “plasma membrane surface immunostaining intensity” value (GPCR class: A (Olfactory)) is on record?
Answer: 392 ± 120

Question: With “MNDDGKVNASSEGYFILVGFSNWPHLEVVIFVVVLIFYLMTLIGNLFIIILSYLDSHLHTPMYFFLSNLSFLDLCYTTSSIPQLLVNLWGPEKTISYAGCMIQLYFVLALGTTECVLLVVMSYDRYAAVCRPLHYTVLMHPRFCHLLAVASWVSGFTNSALHSSFTFWVPLCGHRQVDHFFCEVPALLRLSCVDTHVNELTLMITSSIFVLIPLILILTSYGAIVRAVLRMQSTTGLQKVFGTCGAHLMAVSLFFIPAMCIYLQPPSGNSQDQGKFIALFYTVVTPSLNPLIYTLRNKVVRGAVKRLMGWE [OR2J3]” as the sequence, how does the “plasma membrane surface immunostaining intensity” value (GPCR class: A (Olfactory)) read?
Answer: 184 ± 45

Question: With “MESSFSFGVILAVLASLIIATNTLVAVAVLLLIHKNDGVSLCFTLNLAVADTLIGVAISGLLTDQLSSPSRPTQKTLCSLRMAFVTSSAAASVLTVMLITFDRYLAIKQPFRYLKIMSGFVAGACIAGLWLVSYLIGFLPLGIPMFQQTAYKGQCSFFAVFHPHFVLTLSCVGFFPAMLLFVFFYCDMLKIASMHSQQIRKMEHAGAMAGGYRSPRTPSDFKALRTVSVLIGSFALSWTPFLITGIVQVACQECHLYLVLERYLWLLGVGNSLLNPLIYAYWQKEVRLQLYHMALGVKKVLTSFLLFLSARNCGPERPRESSCHIVTISSSEFDG [GPR119]” as the sequence, how does the “plasma membrane surface immunostaining intensity” value (GPCR class: A) read?
Answer: 702 ± 99

Question: Which “plasma membrane surface immunostaining intensity” value (GPCR class: A (Olfactory)) does the source give for “MVWENQTFNSIFILLGIFNHSPTHTFLFSLVLGIFSLALMENISMVLLIYIEKQLHTPMYFLLSQLSLMDLMLICTTLPKMIFSYLSGKKSISLAGCGTQIFFYVSLLGAECFLLAVMAYDRYVAICHPLQYTILMNPKLCVFMTVASWTLGSLDGIIVLAAVLSFSYCSSLEIHHFFCDVAALLPLSCTETSAFERLLVICCVVMLIFPVSVIILSYSHVLRAVIHMGSGESRRKAFTTCSSHLSVVGLYYGAAMFMYMRPASKHTPDQDKMVSAFYTILTPMLNPLIYSLRNKEVFRALQKVLKKRKLI [OR2M4]” here?
Answer: 172 ± 36

Question: “MKIANNTVVTEFILLGLTQSQDIQLLVFVLILIFYLIILPGNFLIIFTIRSDPGLTAPLYLFLGNLAFLDASYSFIVAPRMLVDFLSEKKVISYRGCITQLFFLHFLGGGEGLLLVVMAFDRYIAICRPLHCSTVMNPRACYAMMLALWLGGFVHSIIQVVLILRLPFCGPNQLDNFFCDVRQVIKLACTDMFVVELLMVFNSGLMTLLCFLGLLASYAVILCHVRRAASEGKNKAMSTCTTRVIIILLMFGPAIFIYMCPFRALPADKMVSLFHTVIFPLMNPMIYTLRNQEVKTSMKRLLSRHVVCQVDFIIRN [OR4N4]” was tested. Which “plasma membrane surface immunostaining intensity” value (GPCR class: A (Olfactory)) did it give?
Answer: 255 ± 110

Question: How did the “plasma membrane surface immunostaining intensity” value (GPCR class: A) turn out when “MRAVFIQGAEEHPAAFCYQVNGSCPRTVHTLGIQLVIYLACAAGMLIIVLGNVFVAFAVSYFKALHTPTNFLLLSLALADMFLGLLVLPLSTIRSVESCWFFGDFLCRLHTYLDTLFCLTSIFHLCFISIDRHCAICDPLLYPSKFTVRVALRYILAGWGVPAAYTSLFLYTDVVETRLSQWLEEMPCVGSCQLLLNKFWGWLNFPLFFVPCLIMISLYVKIFVVATRQAQQITTLSKSLAGAAKHERKAAKTLGIAVGIYLLCWLPFTIDTMVDSLLHFITPPLVFDIFIWFAYFNSACNPIIYVFSYQWFRKALKLTLSQKVFSPQTRTVDLYQE [TAAR5]” was run?
Answer: 381 ± 140

Question: “MDTGPDQSYFSGNHWFVFSVYLLTFLVGLPLNLLALVVFVGKLQRRPVAVDVLLLNLTASDLLLLLFLPFRMVEAANGMHWPLPFILCPLSGFIFFTTIYLTALFLAAVSIERFLSVAHPLWYKTRPRLGQAGLVSVACWLLASAHCSVVYVIEFSGDISHSQGTNGTCYLEFRKDQLAILLPVRLEMAVVLFVVPLIITSYCYSRLVWILGRGGSHRRQRRVAGLLAATLLNFLVCFGPYNVSHVVGYICGESPAWRIYVTLLSTLNSCVDPFVYYFSSSGFQADFHELLRRLCGLWGQWQQESSMELKEQKGGEEQRADRPAERKTSEHSQGCGTGGQVACAES [FFAR3]” was tested. Which “plasma membrane surface immunostaining intensity” value (GPCR class: A) did it give?
Answer: 6440 ± 110

Question: With “MTNSSFFCPVYKDLEPFTYFFYLVFLVGIIGSCFATWAFIQKNTNHRCVSIYLINLLTADFLLTLALPVKIVVDLGVAPWKLKIFHCQVTACLIYINMYLSIIFLAFVSIDRCLQLTHSCKIYRIQEPGFAKMISTVVWLMVLLIMVPNMMIPIKDIKEKSNVGCMEFKKEFGRNWHLLTNFICVAIFLNFSAIILISNCLVIRQLYRNKDNENYPNVKKALINILLVTTGYIICFVPYHIVRIPYTLSQTEVITDCSTRISLFKAKEATLLLAVSNLCFDPILYYHLSKAFRSKVTETFASPKETKAQKEKLRCENNA [GPR171]” as the sequence, how does the “plasma membrane surface immunostaining intensity” value (GPCR class: A) read?
Answer: 455 ± 49

Question: “MGNWSTVTEITLIAFPALLEIRISLFVVLVVTYTLTATGNITIISLIWIDHRLQTPMYFFLSNLSFLDILYTTVITPKLLACLLGEEKTISFAGCMIQTYFYFFLGTVEFILLAVMSFDRYMAICDPLHYTVIMNSRACLLLVLGCWVGAFLSVLFPTIVVTRLPYCRKEINHFFCDIAPLLQVACINTHLIEKINFLLSALVILSSLAFTTGSYVYIISTILRIPSTQGRQKAFSTCASHITVVSIAHGSNIFVYVRPNQNSSLDYDKVAAVLITVVTPLLNPFIYSLRNEKVQEVLRETVNRIMTLIQRKT [OR6M1]” was tested. Which “plasma membrane surface immunostaining intensity” value (GPCR class: A (Olfactory)) did it give?
Answer: 127 ± 27

Question: “MEGNKTWITDITLPRFQVGPALEILLCGLFSAFYTLTLLGNGVIFGIICLDCKLHTPMYFFLSHLAIVDISYASNYVPKMLTNLMNQESTISFFPCIMQTFLYLAFAHVECLILVVMSYDRYADICHPLRYNSLMSWRVCTVLAVASWVFSFLLALVPLVLILSLPFCGPHEINHFFCEILSVLKLACADTWLNQVVIFAACVFILVGPLCLVLVSYLRILAAILRIQSGEGRRKAFSTCSSHLCVVGLFFGSAIVTYMAPKSRHPEEQQKVLSLFYSLFNPMLNPLIYSLRNAEVKGALRRALRKERLT [OR2A14]” was tested. Which “plasma membrane surface immunostaining intensity” value (GPCR class: A (Olfactory)) did it give?
Answer: 121 ± 40

— the supplement of paper PMC12458215
